# Measurements from patent US20100260765A1 (AstraZeneca / MedImmune, published 2010).
# Legend:
# Test in all cases: cell-based or functional assay
# [1] = biological target: T1, KDR (human, UniProt P35968 20-1356)
# [2] = biological target: T1, KDR; remark: listed apart in the source
# [3] = biological target: T1, KDR; remark: listed apart in the source
# [4] = biological target: T1, KDR; remark: listed apart in the source
# [5] = biological target: T1, KDR; remark: listed apart in the source
# T1 sequence (P35968 20-1356): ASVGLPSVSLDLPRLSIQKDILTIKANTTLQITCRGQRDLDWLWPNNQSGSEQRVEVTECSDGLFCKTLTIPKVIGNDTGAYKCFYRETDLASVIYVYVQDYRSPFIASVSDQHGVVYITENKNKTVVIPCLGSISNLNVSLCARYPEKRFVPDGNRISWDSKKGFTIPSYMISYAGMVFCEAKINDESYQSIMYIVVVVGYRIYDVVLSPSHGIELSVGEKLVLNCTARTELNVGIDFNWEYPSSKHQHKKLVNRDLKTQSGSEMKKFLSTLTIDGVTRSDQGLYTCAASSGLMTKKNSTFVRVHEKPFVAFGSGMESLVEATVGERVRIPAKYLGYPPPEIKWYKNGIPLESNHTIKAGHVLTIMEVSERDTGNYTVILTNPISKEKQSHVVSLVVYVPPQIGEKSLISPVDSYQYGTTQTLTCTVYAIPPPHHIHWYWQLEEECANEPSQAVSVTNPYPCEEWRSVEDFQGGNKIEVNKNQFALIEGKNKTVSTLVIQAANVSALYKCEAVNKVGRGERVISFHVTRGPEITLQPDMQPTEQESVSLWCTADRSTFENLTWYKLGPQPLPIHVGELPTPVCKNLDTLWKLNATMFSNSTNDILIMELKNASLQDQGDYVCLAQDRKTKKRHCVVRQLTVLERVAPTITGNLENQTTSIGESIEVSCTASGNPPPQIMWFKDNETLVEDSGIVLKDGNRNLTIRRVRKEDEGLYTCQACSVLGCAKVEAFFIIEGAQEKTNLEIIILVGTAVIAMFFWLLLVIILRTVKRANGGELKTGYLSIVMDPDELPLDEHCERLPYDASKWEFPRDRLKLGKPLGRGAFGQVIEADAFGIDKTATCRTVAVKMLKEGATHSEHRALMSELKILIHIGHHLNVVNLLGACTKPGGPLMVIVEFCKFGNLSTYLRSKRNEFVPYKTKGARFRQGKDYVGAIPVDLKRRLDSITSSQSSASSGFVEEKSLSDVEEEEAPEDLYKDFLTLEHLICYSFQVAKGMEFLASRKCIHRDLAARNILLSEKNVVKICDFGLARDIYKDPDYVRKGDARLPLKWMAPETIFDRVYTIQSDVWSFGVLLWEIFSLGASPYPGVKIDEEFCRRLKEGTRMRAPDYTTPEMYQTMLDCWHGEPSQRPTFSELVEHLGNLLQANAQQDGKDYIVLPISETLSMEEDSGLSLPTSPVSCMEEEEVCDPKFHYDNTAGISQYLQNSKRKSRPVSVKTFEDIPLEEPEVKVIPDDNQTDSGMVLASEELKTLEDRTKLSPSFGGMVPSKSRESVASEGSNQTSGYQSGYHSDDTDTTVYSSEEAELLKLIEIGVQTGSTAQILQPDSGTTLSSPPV
"% of Max VEGF KDR pTyr Activity (at 133 nM antibody concentration), Average [1] [%]","% of Max VEGF KDR pTyr Activity (at 133 nM antibody concentration), N = 1 [1] [%]","% of Max VEGF KDR pTyr Activity (at 133 nM antibody concentration), N = 2 [1] [%]","Activity at 133 nM (% Inhibition), 1-hour Pre-incubation at 4° C., Average [2] [%]","Activity at 133 nM (% Inhibition), 1-hour Pre-incubation at 4° C., N = 1 [2] [%]","Activity at 133 nM (% Inhibition), 1-hour Pre-incubation at 4° C., N = 2 [2] [%]","Activity at 133 nM (% Inhibition), 24-hour Pre-incubation at 37° C., Average [3] [%]","Activity at 133 nM (% Inhibition), 24-hour Pre-incubation at 37° C., N = 1 [3] [%]","Activity at 133 nM (% Inhibition), 24-hour Pre-incubation at 37° C., N = 2 [3] [%]","% Inhibition of VEGF165-mediated 6-keto Prostaglandin F1α release at 133 nM Antibody Concentration, Average [4] [%]","% Inhibition of VEGF165-mediated 6-keto Prostaglandin F1α release at 133 nM Antibody Concentration, N = 1 [4] [%]","% Inhibition of VEGF165-mediated 6-keto Prostaglandin F1α release at 133 nM Antibody Concentration, N = 2 [4] [%]",Binder,"Activity at 133 nM Antibody Concentration (% Survival Inhibition), Average [5] [%]","Activity at 133 nM Antibody Concentration (% Survival Inhibition), N = 1 [5] [%]","Activity at 133 nM Antibody Concentration (% Survival Inhibition), N = 2 [5] [%]"
8,5,10,77,78,75,77,85,68,113,128,98,"33E1 (antibody, V domains shown) VH: QVQLQESGPGLVKPSQTLSLTCTVSGGSISSGDHYWSWIRQHPGKGLEWIGHIYYSGSTDYNPSLKSRVTISVDTSKNHFSLKLNSVTAADTAVYYCARTNSSSWSDWYFDLWGRGTLVTVSS VL: DIVMTQSPDSLAVSLGERATINCKSSQSILYSSNNKNYLAWYQRKPGQPPILLIHWASTRESGVPDRFSGSGSRTDFTLTISSLQAEDVAVYYCQQYFITPWTFGQGTKVEIK",92,86,97
14,12,15,80,80,80,72,76,69,68,66,70,"24B3 (antibody, V domains shown) VH: EVQLVESGGGLVKPGGSLRLSCAASGFTFSTYSMNWVRQAPGKGLEWVSFISGRSSYIYYADSVKGRFTISRDNAKNSLYLQMNSLRAEDTAVYYCSKDDWFEELWGQGTLVTVSS VL: DIQMTQSPSSLSASVGDRVTITCRASQGIRSDLGWYQQKPGKAPKRLIYATSSLQSGVPSRFSGSGSGTEFTLTISSLQPEDFATYYCLQHNRYPWTFGQGTKVEIK",65,65,64
13,13,–,81,81,–,46,46,–,91,91,–,"24C9 (antibody, V domains shown) VH: EVQLVESGGGLVKPGGSLRLSCAASGFTFSTYSMNWVRQAPGKGLEWVSFISGRSSYIYYADSVKGRFTISRDNAKNSLYLQMNSLRAEDTAVYYCSKDDWFEELWGQGTLVTVSS VL: DIQMTQSPSSLSASVGDRVTITCRASQGIRNDLGWYQQKPGKAPKRLIYATFSLQSGVPSRFSGSGSGTEFTLTISSLQPEDFATYYCLQHNRYPWTFGQGTKVEIK",57,57,–
5,4,6,81,82,80,69,90,48,114,130,98,"31E11 (antibody, V domains shown) VH: QVQLVESGGGLVKPGGSLRLSCAASGFTFSDYYMSWIRQAPGKGLEWVSYISISGSTIYYADSVKGRFTISRDNAKNSLYLQMNSLRAEDTAVYYCARDDFWSGYYFNWFDPWGQGTLVTVSS VL: DIQMTQSPSSLSASVGDRVTITCRANQTISTFLNWYQQNPGKAPKLLIYAASSLQSGVPSRFSGSGSGTDFTLTISSLQPEDFATYYCQQTYIIPLTFGGGTKVEIK",89,83,95
12,12,13,26,31,21,62,48,77,10,10,–,"30H10 (antibody, V domains shown) VH: EVQLLESGGGLVQPGGSLRLSCAASGFTFSNYAMSWVRQAPGKGLEWVSAISGSGGITYYADSVKGRFTISRDNSKNTLFLQMNSLRAEDTAVYYCAKASGDNWGQGTLVSVSS VL: not shown",-115,-84,-147
10,9,11,27,32,21,73,73,73,9,6,11,"32C11 (antibody, V domains shown) VH: EVQLLESGGTLVQPGGSLRLSCAASGFTFSNYAMSWVRQAPGKGLEWVSAISGRAGSTYYADSVKGRFTISRDNSKNTLFLQMNSLRAEDTAVYYCAKASGDDWGQGTLVTVSS VL: not shown",-91,-95,-87
13,14,13,84,84,85,55,60,51,79,68,89,"30F6 (antibody, V domains shown) VH: QVQLVESGGGVVQPGRSLRLSCAASGFTFSTYGMHWVRQAPGKGLEWVAVIWYDGSNKYYADSVKGRFTISRDNSKNTLYLQMNSLRAEDTAVYYCACSYWNDDYYYGMDVWGQGTTVTVSS VL: DIQMTQSPSSLSASVGDRVIITCRASQNISSYLIWYQQKPGKAPNLLIHTTSSLQRGVPSRFSGSGSGTDFTLTISSLQPEDFATYYCQQSYSAPLTFGGGTKVEIK",82,91,74
16,15,17,23,25,20,11,7,15,13,11,16,"29A3 (antibody, V domains shown) VH: QVQLQESGPGLVKPSETLSLTCTVSGGSISSYFWSWIRQPAGKGLEWIGRIYFSGRTNYNPSLKSRVTMSVETSKNQFSLKLNSVTAADTAVYYCARDGGWNYDVAFDYWGQGTLVTVSS VL: QAVLTQPSSLSASPGASASLTCTLRSGINVGTYRIYWYQQKPGSPPQYLLRYKSDSDQLQGSGVPSRFSGSKDASANAGILLISGLQSEDEADYYCMVWHSNTWVFGGGTKLTVL",-111,-65,-156
